Assay results: paper doi:10.1101/2021.04.19.440493

What was measured:
[1] = target: α-domain of Ag43 from UPEC UTI89 (α^43_UTI89) (E. coli O18:K1:H7 UTI89 (UPEC)); assay: AUC
[2] = target: α-domain of Ag43 from UPEC UTI89 (α^43_UTI89) (E. coli O18:K1:H7 UTI89 (UPEC)); assay: small-angle X-ray scattering
[3] = target: α-domain of Ag43a from UPEC CFT073 (α^43a) (E. coli CFT073 (UPEC)); assay: AUC
[4] = target: α-domain of Ag43a from UPEC CFT073 (α^43a) (E. coli CFT073 (UPEC)); assay: small-angle X-ray scattering

“α-domain of Ag43 from UPEC UTI89 (α^43_UTI89) (domain or fragment)” gave a stoichiometry N [1] of 2 and a stoichiometry N [2] of 2.
“α-domain of Ag43a from UPEC CFT073 (α^43a) (domain or fragment)” showed a stoichiometry N [3] of 2 and a stoichiometry N [4] of 2.
